Target: T1, Human TFPI (tissue factor pathway inhibitor) (human, UniProt P10646 29-304, limits assumed)
T1 construct: Coated on Maxisorb plates for the ELISA
T1 sequence (looked up): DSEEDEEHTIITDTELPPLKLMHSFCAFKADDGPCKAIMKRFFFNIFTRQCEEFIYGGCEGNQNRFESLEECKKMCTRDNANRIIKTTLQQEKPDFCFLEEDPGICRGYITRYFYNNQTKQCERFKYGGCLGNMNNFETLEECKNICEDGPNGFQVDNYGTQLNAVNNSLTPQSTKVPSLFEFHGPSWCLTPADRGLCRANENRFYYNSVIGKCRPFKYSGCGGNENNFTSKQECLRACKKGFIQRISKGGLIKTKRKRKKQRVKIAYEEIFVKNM
Experiment: pH 6.0 TFPI dissociation ELISA, ratio of signals
Procedure: Human TFPI, 1 μg/ml, was used to coat Maxisorb™ microtiter plates. Expression media, 100 μl, from each member of the His scan library, was added to two wells on the plate, in a pair wise fashion. The plate was incubated on a shaker at room temperature for 1 hr. The plate was washed 3× with PBST. PBS (pH 7.0) was added to one well of the pair, 100 mM pH6.0 Citrate buffer was added to the second well of the same pair. The plate was incubated at 37° C. with shaking for one hr. The plate was washed 3× with PBST and developed using amplex red. A pH 7.0/pH 6.0 ratio was established to rank the sensitive muteins. The ratio for wild type 2A8-g200 Fab was 1.0.

Ratio pH 7.0/pH 6.0: 6.64
B1: 2A8-g200 Fab VL-Y31H (Fab, V domains shown)
VH: EVQLVESGGGLVQPGGSLRLSCAASGFTFSSYGMDWVRQAPGKGLEWVSSIRGSRGSTYYADSVKGRFTISRDNSKNTLYLQMNSLRAEDTAVYYCARLYRYWFDYWGQGTLVTVSS
VL: SYELTQPPSVSVSPGQTARITCSGDNLPKYHAHWYQQKPGQAPVVVIFYDVNRPSGIPERFSGSNSGNTATLTISGTQAMDEADYYCQAWWSSTPVFGGGTKLTVLG
